Assay results reported in the supplement of paper PMC10567573.

B1: GFOD1 (parent)
chain: EEAEELAKEMSVPFYTSRIDEVLL

Variants of: B1
Experiment: protein stability index of a GFP-peptide fusion (GPS, HEK-293T) (PSI 1-6); higher = more stable
Conditions: c terminus: a fixed tail appended
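Also: lentivirally expressed fusions sorted by FACS into six bins by GFP to DsRed ratio, PSI derived from sequencing read proportions per bin multiplied by bin number.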

Variant | protein stability index
EEAEELAKEMSVPFYTSRIDEWLL [V22W] | 3.62
EEAEELAKEMSVPFYTSRIDENLL [V22N] | 4.21
EEAEELAKEMSVPFYTSRIDEILL [V22I] | 3.23
EEAEELAKEMSVPFYTSRIDEDLL [V22D] | 5.23
EEAEELAKEMSVPFYTSRIDEQLL [V22Q] | 4.65
EEAEELAKEMSVPFYTSRIDERLL [V22R] | 4.26
EEAEELAKEMSVPFYTSRIDEMLL [V22M] | 4.29
EEAEELASEMSVPFYTSRIDEVLL [K8S] | 2.89
EEAEELAHEMSVPFYTSRIDEVLL [K8H] | 3.66
EEAEELAFEMSVPFYTSRIDEVLL [K8F] | 2.25
EEAEELAREMSVPFYTSRIDEVLL [K8R] | 4.04
EEAEELAMEMSVPFYTSRIDEVLL [K8M] | 3.29
EEAEELAYEMSVPFYTSRIDEVLL [K8Y] | 2.86
EEAEELATEMSVPFYTSRIDEVLL [K8T] | 3.89
EEAEELAAEMSVPFYTSRIDEVLL [K8A] | 3.66
EEAEELAKEMSVPFYTSRIDEVPL [L23P] | 4.57
EEAEELAKEMSVPFYTSRIDEVDL [L23D] | 5.11
EEAEELAKEMSVPFYTSRIDEVVL [L23V] | 4.26
EEAEELAKEMSVPFYTSRIDEVQL [L23Q] | 4.72
EEAEELAKEMSVPFYTSRIDEVYL [L23Y] | 3.42
EEAEELAKEMSVPFYTSRIDEVNL [L23N] | 4.21
EEAEELAKEMSVPFYTSRIDEVEL [L23E] | 5.13
EEAEELAKEMSVPFYTSRIDEVRL [L23R] | 4.31
EEAEELAKEMSVPFYTSRIDEVHL [L23H] | 3.9

Variant | protein stability index
EEAEELAKEMSVPFYTSRIDEVSL [L23S] | 4.54
TEAEELAKEMSVPFYTSRIDEVLL [E1T] | 3.56
HEAEELAKEMSVPFYTSRIDEVLL [E1H] | 4.47
REAEELAKEMSVPFYTSRIDEVLL [E1R] | 3.33
AEAEELAKEMSVPFYTSRIDEVLL [E1A] | 3.79
SEAEELAKEMSVPFYTSRIDEVLL [E1S] | 4.24
IEAEELAKEMSVPFYTSRIDEVLL [E1I] | 2.46
PEAEELAKEMSVPFYTSRIDEVLL [E1P] | 3.51
VEAEELAKEMSVPFYTSRIDEVLL [E1V] | 2.95
KEAEELAKEMSVPFYTSRIDEVLL [E1K] | 4.03
EEAEELAKEMSHPFYTSRIDEVLL [V12H] | 3.03
EEAEELAKEMSMPFYTSRIDEVLL [V12M] | 4.31
EEAEELAKEMSYPFYTSRIDEVLL [V12Y] | 4.22
EEAEELAKEMSEPFYTSRIDEVLL [V12E] | 4.38
EEAEELAKEMSDPFYTSRIDEVLL [V12D] | 3.47
EEAEELAKEMSQPFYTSRIDEVLL [V12Q] | 3.91
EEAEELAKEMSSPFYTSRIDEVLL [V12S] | 4.46
EEAEELAKEMSFPFYTSRIDEVLL [V12F] | 2.91
EEAEELAKEMSGPFYTSRIDEVLL [V12G] | 4.26
EEAEELAKEMSVPFYTSDIDEVLL [R18D] | 4.79
EEAEELAKEMSVPFYTSTIDEVLL [R18T] | 4.27
EEAEELAKEMSVPFYTSVIDEVLL [R18V] | 2.64
EEAEELAKEMSVPFYTSHIDEVLL [R18H] | 4.57
EEAEELAKEMSVPFYTSPIDEVLL [R18P] | 4.15

Variant | protein stability index
EEAEELAKEMSVPFYTSCIDEVLL [R18C] | 4.17
EEAEELAKEMSVPFYTSQIDEVLL [R18Q] | 4.69
EEAEELAKEMSVPFYTSWIDEVLL [R18W] | 3.71
EEAEEWAKEMSVPFYTSRIDEVLL [L6W] | 3.75
EEAEERAKEMSVPFYTSRIDEVLL [L6R] | 4.2
EEAEEQAKEMSVPFYTSRIDEVLL [L6Q] | 3.7
EEAEEEAKEMSVPFYTSRIDEVLL [L6E] | 4.67
EEAEEIAKEMSVPFYTSRIDEVLL [L6I] | 3.73
EEAEEMAKEMSVPFYTSRIDEVLL [L6M] | 4.01
EEAEEKAKEMSVPFYTSRIDEVLL [L6K] | 4.54
EEAEEHAKEMSVPFYTSRIDEVLL [L6H] | 4.48
EEAEEYAKEMSVPFYTSRIDEVLL [L6Y] | 3.95
EEAEEFAKEMSVPFYTSRIDEVLL [L6F] | 3.93
EEAEEAAKEMSVPFYTSRIDEVLL [L6A] | 4.38
EEAEELAKEMSVPFYTSRSDEVLL [I19S] | 4.75
EEAEELAKEMSVPFYTSRPDEVLL [I19P] | 4.48
EEAEELAKEMSVPFYTSRMDEVLL [I19M] | 3.2
EEAEELAKEMSVPFYTSRNDEVLL [I19N] | 5
EEAEELAKEMSVPFYTSREDEVLL [I19E] | 5.1
EEAEELAKEMSVPFYTSRDDEVLL [I19D] | 5.04
EEAEELAKEMSVPFYTSRVDEVLL [I19V] | 4.31
EEAEELAKEMSVPFYTSRQDEVLL [I19Q] | 4.93
EEAEELAKEMSVPFYTSRTDEVLL [I19T] | 4.11
EEAEELAKEMSVPFYTSRHDEVLL [I19H] | 4.85

Variant | protein stability index
EEAHELAKEMSVPFYTSRIDEVLL [E4H] | 3.4
EEAYELAKEMSVPFYTSRIDEVLL [E4Y] | 2.64
EEAQELAKEMSVPFYTSRIDEVLL [E4Q] | 3.9
EEANELAKEMSVPFYTSRIDEVLL [E4N] | 3.92
EEAWELAKEMSVPFYTSRIDEVLL [E4W] | 2.77
EEAAELAKEMSVPFYTSRIDEVLL [E4A] | 3.45
EEVEELAKEMSVPFYTSRIDEVLL [A3V] | 3.32
EENEELAKEMSVPFYTSRIDEVLL [A3N] | 4.03
EEGEELAKEMSVPFYTSRIDEVLL [A3G] | 3.95
EECEELAKEMSVPFYTSRIDEVLL [A3C] | 2.56
EEHEELAKEMSVPFYTSRIDEVLL [A3H] | 3.84
EELEELAKEMSVPFYTSRIDEVLL [A3L] | 3.11
EEAEELAKEMSVPFETSRIDEVLL [Y15E] | 4.99
EEAEELAKEMSVPFPTSRIDEVLL [Y15P] | 5
EEAEELAKEMSVPFFTSRIDEVLL [Y15F] | 3.61
EEAEELAKEMSVPFKTSRIDEVLL [Y15K] | 4.41
EEAEELAKEMSVPFHTSRIDEVLL [Y15H] | 4.77
EEAEELAKEMSVPFNTSRIDEVLL [Y15N] | 4.83
EEAEELAKEMSVPFATSRIDEVLL [Y15A] | 4.47
EVAEELAKEMSVPFYTSRIDEVLL [E2V] | 3.64
ELAEELAKEMSVPFYTSRIDEVLL [E2L] | 2.76
EHAEELAKEMSVPFYTSRIDEVLL [E2H] | 3.06
